Residue numbers refer to the chain shown, from its start. Numbers in names are those of the source.
B1: HaloTag-178-(L1-3)cpLgBiT+4 67/68 (E4D, Q42M, M106K, T144D)-179: SEQ ID NO: 93 (protein)
chain: GSEIGTGFPFDPHYVEVLGERMHYVDVGPRDGTPVLFLHGNPTSSYVWRNIIPHVAPTHRCIAPDLIGMGKSDKPDLGYFFDDHVRFMDAFIEALGLEEVVLVIHDWGSALGFHWAKRNPERVKGIAFMEFIRPIPTWDEWPEFARETFQAFRTTDVGRKLIIDQNVFIEGTLPMGVVGGSSADQMAQIEEVFKVVYPVDDHHFKVILPYGTLVIDGVTPNKLNYFGRPYEGIAVFDGKKITVTGTLWNGNKIIDERLIDPDGSMLFRVTINSGGTGGSGGTGGSMVFTLDDFVGDWEQTAAYNLDQVLEQGGVSSLLQNLAVSVTPIMRIVRSGENALKIDIHVIIPYEGLRPLTEVEMDHYREPFLNPVDREPLWRFPNELPIAGEPANIVALVEEYMDWLHQSPVPKLLFWGTPGVLIPPAEAARLAKSLPNCKAVDIGPGLNLLQEDNPDLIGSEIARWLSTLEISG
B2: HaloTag-178-(L1-3)cpLgBiT+4 67/68 (E4D, Q42M, M106K, T144D, R112H, V127T, K123E)- 179: SEQ ID NO: 106 (protein)
chain: B1 chain with R228H, K239E, V243T

Assays:
[1] = test system: HeLa cells expressing HiBiT-tagged GAPDH; experiment: Complementation-based chimeras transfected into genome edited HeLa cells expressing HiBiT-tagged GAPDH: expression, brightness, BRET; type: cell-based
Procedure: FIG. 23 A-G. Characterization of transiently expressed complementation-based chimeras incorporating flexible linkers and LgBiT+4 circularly permuted at two alternative sites (i.e., 67/68 or 49/50). Constructs encoding the chimeras were transfected into genome edited HeLa cells expressing HiBiT-tagged GAPDH. Cells were evaluated for expression, brightness, and efficiency of intramolecular BRET to a bound TMR ligand. (A) Structure of the HALOTAG-cpLGBIT chimeras. (B) Expression levels. Lysates from cells labeled with 1 μM HaloTag-TMR ligand were resolved on SDS-PAGE and scanned on a fluorescent imager. Expression levels quantitated using Image J software were normalized to the expression of HaloTag178-cpLgBIT+4 67/68-179. (C) Total luminescence from cells treated with 20 μM fluorofurimazine. (D) Intramolecular BRET efficiencies for cells treated with 500 nM HaloTag-TMR ligand.

[2] = Intramolecular BRET efficiency of purified fusions and chimeras to a bound TMR ligand; type: biochemical; conditions: 6 nM chimeras complemented with 60 nM VS-HiBiT; compared with HT-178(L1-3)cpLgBiT+4 67/68-179
Excerpt: (§1) FIG. 9A-D. Characteristics of HaloTag-NLuc fusions and chimeras generated by insertion of circularly-permuted NanoLuc (cpNLuc), circularly-permuted thermostable NanoLuc (cptsNLuc), and circularly-permuted thermostable NanoLuc with a point mutation, F164C (cptsNLuc(F164C)) into loops 165 and 180. Fusion and chimeras were expressed in E. coli, purified, and compared for binding kinetics of a chloroalkane-TMR ligand, brightness of luminescence, and efficiency of intramolecular BRET to a bound TMR ligand. (A) Chimera structures (B) Binding kinetics of 2.5 nM chloroalkane-TMR to 20 nM fusions, and chimeras monitored via fluorescent polarization (C) Total luminescence for 6 nM fusions, and chimeras treated with 20 μM fluorofurimazine (D) Intramolecular BRET efficiencies for 6 nM fusions, and chimeras that were labeled with 5-fold molar excess of chloroalkane-TMR and treated with 20 μM fluorofurimazine.
(§2) FIG. 13A-B. Luminescence and BRET efficiencies of HaloTag-LgBiT fusions, and chimeras generated by insertion of LgBiT and circularly-permuted LgBiT (cpLgBiT) into loop 180. […]
(§3) FIG. 19 A-E. Biochemical characterization of chimeras generated by inserting a circularly permuted NanoLuc to HaloTag's loops 180 and 194/195. […] (C) Binding kinetics of 2.5 nM HaloTag-TMR ligand to 20 nM chimeras monitored via fluorescent polarization. […]

[3] = Total luminescence (brightness) of purified fusions and chimeras treated with fluorofurimazine; type: biochemical; conditions: 6 nM chimeras complemented with 60 nM VS-HiBiT; compared with HT-178(L1-3)cpLgBiT+4 67/68-179
Excerpt: as §1, §2, §3

VS-HiBiT peptide = experiment: Binding affinity of complementation-based chimeras to VS-HiBiT peptide; conditions: compared with HT-178(L1-3)cpLgBiT+4 67/68-179
Procedure: FIG. 22 A-I. Biochemical characterization of complementation-based chimeras incorporating flexible linkers and LgBiT+4 circularly permuted at two alternative sites (i.e., 67/68 or 49/50). (A) Structure of the HALOTAG-cpLGBIT chimeras. (B-C) Influence of flexible linkers on binding kinetics of 2.5 nM HaloTag-TMR ligand to 20 nM chimeras, which were complemented with 200 nM VS-HiBiT. (C-D) Influence of flexible linkers on binding affinity to a VS-HiBiT peptide. (E-F) Total luminescence for 6 nM chimeras complemented with 60 nM VS-HiBiT and treated with 20 μM fluorofurimazine. (G-I) Intramolecular BRET efficiencies for 6 nM chimeras complemented with 60 nM VS-HiBiT and covalently labeled with HaloTag-TMR ligand.
FIG. 25 A-E. Influence of additional LgTrip mutations on biochemical properties of the lead complementation-based chimera HaloTag178(L1-3)-cpLgBiT+4-179. Annotations of the additional mutations are based on a full length non disrupted NanoLuc protein (A) Structure of the HALOTAG-cpLGBIT chimeras (B) Influence of mutations on binding affinities to the VS-HiBiT peptide. (C) Influence of mutations on brightness and efficiency of intramolecular BRET to a bound TMR ligand for 6 nM chimeras complemented with 60 nM VS-HiBiT. (D-E) Binding kinetics of 2.5 nM HaloTag-TMR ligand to 20 nM or 80 nM chimeras, which were complemented with 200 nM or 800 nM VS-HiBiT, respectively.
FIG. 26 A-C. […]

[4] = mammalian cells, among the tested HALOTAG-cpLGBIT chimeras

Row | binding affinity to VS-HiBiT (VS-HiBiT peptide) | Molecule | expression ([1]; genome-edited HeLa cells expressing HiBiT-tagged-GAPDH) | BRET efficiency [1, 4] | brightness [1, 4] | BRET efficiency [2] | brightness [3]
1 |  | B1 | highest | highest | highest |  | 
2 | significantly higher affinity | B2 |  |  |  | similar | similar

Source: patent publication US20240132859A1, “MODIFIED DEHALOGENASE WITH EXTENDED SURFACE LOOP REGIONS” (Promega Corporation, priority 2022, published 2024)
